Data as given in patent US20140289906A1, “Compositions Having Dicamba Decarboxylase Activity and Methods of Use” (priority 2013, published 2014).
Positions count from the first letter of the chain named.

B1: 19 (protein, listed as Talaromyces marneffei)
chain: MATPIITLEEHYISSAIRDASETDHYAVFPSQIISKLNTLSTERLQDLDNGHVSLQVISHGPGAQPPYLCQAANDELASAISANPTRFAGFALLPIAEPQLAVQELERCITQHKFVGALIDNHTNGQFYDDQKFWPVFEKAQELDAPIYVHPSYPDEESGVAAHYRGNYDDRIAAALGAYGWGWHSDTALSILRLFAAGLFDTYPNIKIIIGHMGEMLPFQLERVIGIASRFGRSRGLREVWTQNIWVTTSGMFALAPLACLLQTMPIERVLYSVDYPFSANEKGFAFLEEIKKSGLIKEGEDWERFLYKNAQELLKVNV
B2: 5 (protein, listed as Staphylococcus aureus)
chain: MAQNNMEANQMKSITFEEHYVIEDIQKETMNAISADPKGVPMKVMLEGLEKKTGFTNADELSHHDERIQFMNNQDVQIQVLSYGNGSPSNLVGQKAIELCQKANDQLANYIAQYPNRFVGFATLPINEPEAAAREFERCINDLGFKGALIMGRAQDGFLDQDKYDIIFKTAENLGVPIYLHPAPVNSDIYQSYYKGNYPEVTAATFACFGYGWHIDVGIHAIHLVLSGIFDRYPKLNMIIGHWGEFIPFFLERMDEALFAEHLNHPVSYYFKNNFYITPSGMLTKPQFDLVKKEAGIDRILYAADYPYIEPEKLGVFLDELGLTDEEKEKISYTNGAKLLGLSSNN
B3: 16 (protein, listed as Staphylococcus aureus)
chain: B2 chain with A131T
B4: 89 (protein, listed as Erwinia billingiae)
chain: MATNRRDFLKNATAVMAGSTVFAGSSHFASAAAVEPAAVQPPRRIIALEEHFMLPEFVGYLHETQQNLRNGLVDKVVTPLSDFGKGRLEIMDKNGVDFAVLSLSGPGVQAEPDRVKAVRLARYANDKLATEMQKNPRRYGGFAHLAMQDPLAAANELERCVKQLHMQGGMINGETDGLYLDDRRYDVFWERVEALNVPIYIHPGNPPDYPHMFAGHPEMWGPVWSWAVETCSHALRLIFSGTFDRYPGARVILGHMGETLPIQLWRLDSRYQIANQTFAIKHPPSWYAKKNITITTSGVCNDAALRCALDSMGSENVMFSIDYPFESTEIAVNWLKTANITEQERNAVAWGNATSILRLGA
B5: 38 (protein, listed as Variovorax paradoxus)
chain: MAQGKIGLEEHFAIPQTLQDSAGFVPGVYWKELSSRLLDIHDGRLRQMDEHGMEMMILSLNAPAVQAVADPVKAYELAVRANDFLAEQVAKRPDRFQAFAALPMQDPEKATQELERCMSVLGFRGALVNGFSQVGTPDNVAYYDAPQYAPFWAAAERLDAPFYLHPRNPIASWAQIYEGHPWLLGPTWAFAQETAVHALRLMASGLFDRHPGLKIILGHLGEGLPYNMWRVDHRNAWVKAPKGYPAKRKLCEYFQENFYLTTSGNFRTQTLIDAMLEVGSDRILFSTDWPFENIDHASNWFNDTSISEADRKKIGRTNAMSLFKLA
B6: 37 (protein, listed as Burkholderia gladioli)
chain: MATFSNVKKIALEEHFAIAETIEDSAGFVPPDDWVELRGRLLDIQERRLAEMDRAGIELMVLSLNAPAVQAIRDPRQAVELARRANDYLAEQVARRPDRFRAFAALPMQAPEQAIREAERCVRELGFVGALVNGFSEAEDGAELYYDLPRYRPFWAALEALEVPFYLHPRNPLAGRAPIYDGHSWLMGPTWAFGQETAVHALRLMGSGLFDAHPRLQIILGHMGEGLPYSMWRVDNRNAWVSAKPNYPAEKPIAEYFRNNFWLTTSGNFRTQTLIDAMLEIGSDRILFSADWPFENMDHAADWFDHASISENDRIKIGRGNAERLLKLGR
B7: 21 (protein, listed as Agrobacterium tumefaciens)
chain: MAQGKVALEEHFAIPETLQDSAGFVPGDYWKELQHRLLDIQDTRLKLMDAHGIETMILSLNAPAVQAIPDRKKAIEIARRANDVLAEECARRPDRFLAFAALPLQDPDAATQELQRCVNDLGFVGALVNGFSQEGDGQTPLYYDLPQYRPFWGEVEKLDVPFYLHPRNPLPQDSRIYDGHPWLLGPTWAFAQETAVHALRLMASGLFDAHPRLNIILGHMGEGLPYMMWRIDHRNAWVKLPPRYPAKRRFVDYFNENFHITTSGNFRTQTLIDAILEIGADRILFSTDWPFENIDHASDWFNATTIAEADRVKIGRTNARRLFKLDGR
B8: 92 (protein, listed as Chitinophaga pinensis)
chain: MARIVTLEEHVSFPEMTALLPEEILKNRKQSGAALQMQEKLADITGERLTSMKAAGISMQVLSVENTDVYLLPDSLAPAFAAKYNDLLADKISSHSDAFAAFAMLPMTVPEAAADELERAVKTHGFCGAMIKGLINGVFLDAPKFAPVFACAEKLGVPLYIHPGIPPKEVIDAYYSNVGDTKGPNEAIACYGWGWHSETAIHILRLLAAGIFDKYPQLNIIIGHMGEMLPMMWERSNRVFQPGNNGKNQRTLIETFRKQLYITTSGIFTQPPLQIAIDTIGIDNILFSIDYPFSSNQMGIDFLTKAALPAEQLAKMAHGNADRILKF
B9: 26 (protein, listed as Variovorax paradoxus)
chain: MATHMAPMKNKIALEEHFAIDLTIADSQVYARPEVWQGLKSNLLDFEQQRLEKMDEWGTEFSILSLNSPAVQGIPDAKRAIEVAQRANDVLAEQVKRHPTRFGGFAALPMQDPEASARELERCVNQLGFHGFLVNGFSQVGDENIVVYYDDARFNDFWTAAAALKKPFYMHPRDPLLAREPIYDGAHWLTGPTWAFAMETAIHALRLMSSGMFDRHPALQMILGHFGEGIPFNIWRVDHILRKGRRGMPCDKEIGEYLRSNVHITTSGNFRTPTLLSTMLEVGSDRIMYSVDYPFEKHEDAARWFDTCEISENDRQKIGRDNARKLFGLK
B10: 40 (protein, listed as Rhodococcus jostii)
chain: MAQGKIALEEHFAIPETLNDSAGFVPGTYWDELQARLLDIQDVRLKLMDEHNIETMILSLNAPAVQAIPERERAIDIARRANDVLAEECAKRPDRFRGFAALPLQDPDAAAEELRRCVTELGFVGALVNGFSQSATVDGGSTPLYYDLPRYRPFWAEVERLDVPFYLHPRNPLNQDARIYEGHPWLLGPTWAFAQETAVHALRLMASGLFDEHPGLRIVLGHMGEGIPAMLWRIDHRNAWVDVPPAYPAKRRMVDYFTENFFVTTSGNFRTQTLIDLLLELGSERVMFSTDWPFENINHAAEWFDAASISEADRLKIGRTNAATLFKLDR
B11: 4 (protein, listed as Lactobacillus buchneri)
chain: MAKVITLEEHFSSQKLGQKMAEVLPKRPIGNVSPKMQDYMQRSLPPEAELEDVTGSRIQWMDQHQISMQILSYGNQNPQNSDPKFAVELTKLANDELAKAVAKAPDRFRAFASLPVSHPTDAAAELKRGVEELGFKGAMLVRPTSQAHPFFDDPFYLPIFEAAANLNVPVYLHPSFPDSQIIDYYYSNGPWDDKVSGILGTAGYGWHTDVGIQTVRLLLSGVFEKYPNLKLISGHWGEFASFALERMDQVMYPETNLSEPISKIYRDHVYVTPSGILTEPQLKFVKDEVGIEHLLYSIDYPYIKPENSGSFIESSPLTDEEKELFAHGNAEKLLQL
B12: 88 (protein, listed as Starkeya novella)
chain: MARKIALEEHFTTPELAGKYVARPTQSDALFADIERRLADFDELRLEMMDRAEIDLMVLSVTTPGVQGVRDTGEAIRLARGANDFLAREVQKRPSRYAGFAHLAMQDAEAAATELERAVRELGFRGALINGQTNGHYLDEDQYAPFWERVQELDVPVYLHPGNMADSPAMFAHRPELGGPIWAWTAETAAHALRLVFGGTFTRFPGAKVILGHMGETLPFLLWRLDSRREFDLGEKLAPDALPSAIIKRNIAVTTSGVCDPAPLVAALQALSDDNVMFSVDYPYEDPQLASKFIETAPIGEETRAKVCHGNAERLLGL
B13: 39 (protein, listed as Agrobacterium fabrum)
chain: MAQGKVALEEHFAIPETLQDSAGFVPGDCWTELQHRLLDIQDTRLKLMDAHGIETMILSLNAPAVQAIPDKTKAIEIARRANDALAEECAKRPDRFLAFAALPLQDPDAATQELRRCVNDLGFVGALVNGFSQEGDGQTPLYYDLPQYRPFWGEVEKLDVPFYLHPRNPLPQDSRIYDGHPWLLGPTWAFAQETAVHALRLMASGLFDEHPRLDIILGHMGEGLPYMMWRIDHRNAWVKLPPRYPAKRRFVDYFNENFHITTSGNFRTQTLIDAILEIGADRILFSTDWPFENIDHASDWFHATSIAEADRVKIGRTNARRLFKLDGR
B14: 22 (protein, listed as Staphylococcus epidermidis)
chain: MAKSINFEEHYVVDDIQKETMKYMSSDPNGVPMQTMLKGLEQKSGFTNADDITKHDERIKFMDEHDVEMQVLSYGNGAPSNLEGERAIELCQQANDTLAKYVNEHPDRFVGFATLPINEPQAAVEEFKRCIKELGFKGALIMGHPKNGFLDQDQYDDLFATAEALNVPIYLHPSPVQSDVYQAYYKGNYSDVTAATFACFGYGWHVDVGIHAIHLVLSGVFDRHPNLNMIIGHWGEFVPFFLERMDDILFADHLEHPISYYFKNNFYITPSGMLTKPQFDLVKAEVGVDRILYSADYPYVEPDKLGTFLDELDLTEEEKEKISYKNGAKLLGLEK

Test: 14C assay: 14CO2 capture from [14C]-carboxyl-labeled dicamba with IPTG-induced recombinant E. coli cells
Details: for Dicamba Decarboxylase Activity: IPTG-induced recombinant E. coli cells, 14CO2 from [14C]-carboxyl-labeled dicamba; for decarboxylation activity of dicamba: among the 108 sequences tested, recombinant E. coli cell assay; for Enzymatic Detection level: dicamba decarboxylation activity

| Molecule | Dicamba Decarboxylase Activity | decarboxylation activity of dicamba | Enzymatic Detection level |
| --- | --- | --- | --- |
| B1 | High | showed decarboxylation activity of dicamba | High |
| B2 | High | showed decarboxylation activity of dicamba | High |
| B3 | High | showed decarboxylation activity of dicamba | High |
| B4 | High | showed decarboxylation activity of dicamba | High |
| B5 | Low |  | Low |
| B6 | Low |  | Low |
| B7 | High | showed decarboxylation activity of dicamba | High |
| B8 | Yes | showed decarboxylation activity of dicamba | High |
| B9 | High | showed decarboxylation activity of dicamba | High |
| B10 | Low |  | Low |
| B11 | High | showed decarboxylation activity of dicamba | High |
| B12 | High | showed decarboxylation activity of dicamba | High |
| B13 | No |  | No |
| B14 | High | showed decarboxylation activity of dicamba | High |
